Reference: paper PMC10397247

Assays:
Assay in all cases: two-hybrid library CCNG1;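 further: natural log of median RNA to DNA barcode read ratio; higher means stronger binding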
4H319-bH = target: T1, 4H319-bH
T1 chain: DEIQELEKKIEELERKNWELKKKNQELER

4H2444-bH = target: T2, 4H2444-bH
T2 chain: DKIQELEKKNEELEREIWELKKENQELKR

4H949-bH = target: T3, 4H949-bH
T3 chain: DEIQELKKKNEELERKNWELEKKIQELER

4H264-bH = target: T4, 4H264-bH
T4 chain: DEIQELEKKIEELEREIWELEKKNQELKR

4H349-bH = target: T5, 4H349-bH
T5 chain: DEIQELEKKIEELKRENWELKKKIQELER

4H56-bH = target: T6, 4H56-bH
T6 chain: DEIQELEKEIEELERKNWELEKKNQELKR

4H730-bH = target: T7, 4H730-bH
T7 chain: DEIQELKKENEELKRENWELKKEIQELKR

4H2931-bH = target: T8, 4H2931-bH
T8 chain: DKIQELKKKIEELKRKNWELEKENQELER

4H2585-bH = target: T9, 4H2585-bH
T9 chain: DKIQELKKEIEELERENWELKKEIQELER

4H2253-bH = target: T10, 4H2253-bH
T10 chain: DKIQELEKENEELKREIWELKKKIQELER

4H3381-bH = target: T11, 4H3381-bH
T11 chain: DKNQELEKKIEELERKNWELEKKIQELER

4H2233-bH = target: T12, 4H2233-bH
T12 chain: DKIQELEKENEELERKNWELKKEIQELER

O5 = target: T13, O5
T13 chain: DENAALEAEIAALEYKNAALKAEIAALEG

4H932-bH = target: T14, 4H932-bH
T14 chain: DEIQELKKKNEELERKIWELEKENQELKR

4H796-bH = target: T15, 4H796-bH
T15 chain: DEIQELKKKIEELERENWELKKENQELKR

4H3041-bH = target: T16, 4H3041-bH
T16 chain: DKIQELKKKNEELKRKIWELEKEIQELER

4H3364-bH = target: T17, 4H3364-bH
T17 chain: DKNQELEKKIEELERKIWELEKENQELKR

4H3297-bH = target: T18, 4H3297-bH
T18 chain: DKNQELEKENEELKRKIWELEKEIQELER

4H2859-bH = target: T19, 4H2859-bH
T19 chain: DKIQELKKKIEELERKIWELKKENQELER

4H2518-bH = target: T20, 4H2518-bH
T20 chain: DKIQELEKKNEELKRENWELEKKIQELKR

4H2760-bH = target: T21, 4H2760-bH
T21 chain: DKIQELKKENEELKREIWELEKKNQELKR

4H235-bH = target: T22, 4H235-bH
T22 chain: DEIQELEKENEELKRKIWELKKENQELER

interaction score (4H319-bH): -0.931 | interaction score (4H2444-bH): -0.446 | interaction score (4H949-bH): -0.96 | interaction score (4H264-bH): -0.0896 | interaction score (4H349-bH): 0.0715 | interaction score (4H56-bH): -1.28 | interaction score (4H730-bH): -0.961 | interaction score (4H2931-bH): -0.862 | interaction score (4H2585-bH): -0.529 | interaction score (4H2253-bH): -0.0513 | interaction score (4H3381-bH): -0.723 | interaction score (4H2233-bH): 0.18 | interaction score (O5): -1.37 | interaction score (4H932-bH): -1.01 | interaction score (4H796-bH): -0.815 | interaction score (4H3041-bH): -0.641 | interaction score (4H3364-bH): -0.899 | interaction score (4H3297-bH): -0.069 | interaction score (4H2859-bH): -0.442 | interaction score (4H2518-bH): 1.4 | interaction score (4H2760-bH): -0.804 | interaction score (4H235-bH): -0.93
Binder: DKIQELEKENEELERKNWELKKEIQELER [4H2233-bH]
